B1: Anti-CD3 Ly305 (antibody, V domains shown)
VH: EVQLVESGGGLVQPGGSLRLSCAASGFTFSTYAMNWVRQAPGKGLEWVGRIRSKYNNYATYYADSVKGRFTISRDDSKNSLYLQMNSLKTEDTAVYYCVRHGNFGNSYVSWFAYWGQGTLVTVSS
VL: QAVVTQEPSLTVSPGGTVTLTCRSSTGAVTTSNYANWVQQKPGQAPRGLIGGTNKRAPWTPARFSGSLLGGKAALTITGAQAEDEADYYCALWYSNLWVFGGGTKLTVL
notes: mAb; also called parent anti-CD3 mAb
B2: Ly1965 (bispecific antibody)
chain 1: QVQLVQSGAEVKKPGASVKVSCKASGYTFTSYVMHWVRQKPGQGLEWIGYINPYNEGTESTDKFKGRATMTSDKSTSTVYMELSSLRSEDTAVYYCASIYYGYEGTYFGVWGQGTLVTVSSASTKGPSVFPLAPSSKSTSGGTAALGCLVKDYFPEPVTVSWNSGALTSGVHTFPAVLQSSGLYSLSSVVTVPSSSLGTQTYICNVNHKPSNTKVDKKVEPKSCGGGGSGGGGSGGGGSGGGGSEVQLVESGGGLVQPGGSLRLSCAASGFTFSTYAMNWVRQAPGKGLEWVGRIRSKYNNYATYYADSVKGRFTISRDDSKNSLYLQMNSLKTEDTAVYYCVRHGNFGNSYVSWFAYWGQGTLVTVSSGGGGSDKTHTCPPCPAPEAAGPSVFLFPPKPKDTLMISRTPEVTCVVVDVSHEDPEVKFNWYVDGVEVHNAKTKPREEQYNSTYRVVSVLTVLHQDWLNGKEYKCKVSNKALPAPIEKTISKAKGQPREPQVYTLPPSREEMTKNQVSLWCLVKGFYPSDIAVEWESNGQPENNYKTTPPVLDSDGSFFLYSKLTVDKSRWQQGNVFSCSVMHEALHNHYTQKSLSLSPG
chain 2: QVQLVQSGAEVKKPGASVKVSCKASGYTFTSYVMHWVRQKPGQGLEWIGYINPYNEGTESTDKFKGRATMTSDKSTSTVYMELSSLRSEDTAVYYCASIYYGYEGTYFGVWGQGTLVTVSSASTKGPSVFPLAPSSKSTSGGTAALGCLVKDYFPEPVTVSWNSGALTSGVHTFPAVLQSSGLYSLSSVVTVPSSSLGTQTYICNVNHKPSNTKVDKKVEPKSCGGGGSGGGGSGGGGSGGGGSQAVVTQEPSLTVSPGGTVTLTCRSSTGAVTTSNYANWVQQKPGQAPRGLIGGTNKRAPWTPARFSGSLLGGKAALTITGAQAEDEADYYCALWYSNLWVFGGGTKLTVLGGGGSDKTHTCPPCPAPEAAGPSVFLFPPKPKDTLMISRTPEVTCVVVDVSHEDPEVKFNWYVDGVEVHNAKTKPREEQYNSTYRVVSVLTVLHQDWLNGKEYKCKVSNKALPAPIEKTISKAKGQPREPQVYTLPPSREEMTKNQVSLSCAVKGFYPSDIAVEWESNGQPENNYKTTPPVLDSDGSFFLVSKLTVDKSRWQQGNVFSCSVMHEALHNRFTQKSLSLSPG
chain 3: EIVLTQSPATLSLSPGERATLSCRASSSVSYMHWYQQKPGQAPRPWIYATSNLASGIPARFSGSRSGTDYTLTISSLEPEDFAVYYCQQWSSNTLTFGGGTKVEIKRTVAAPSVFIFPPSDEQLKSGTASVVCLLNNFYPREAKVQWKVDNALQSGNSQESVTEQDSKDSTYSLSSTLTLSKADYEKHKVYACEVTHQGLSSPVTKSFNRGEC
notes: B7H3/CD3; central CD3 Fv
B3: Ly1963 (multi-specific antibody)
chain 1: QVQLVQSGAEVKKPGASVKVSCKASGYTFTSYVMHWVRQKPGQGLEWIGYINPYNEGTESTDKFKGRATMTSDKSTSTVYMELSSLRSEDTAVYYCASIYYGYEGTYFGVWGQGTLVTVSSASTKGPSVFPLAPSSKSTSGGTAALGCLVKDYFPEPVTVSWNSGALTSGVHTFPAVLQSSGLYSLSSVVTVPSSSLGTQTYICNVNHKPSNTKVDKKVEPKSCGGGGSGGGGSGGGGSGGGGSEVQLVESGGGLVQPGGSLRLSCAASGFTFSTYAMNWVRQAPGKGLEWVGRIRSKYNNYATYYADSVKGRFTISRDDSKNSLYLQMNSLKTEDTAVYYCVRHGNFGNSYVSWFAYWGQGTLVTVSSGGGGSDKTHTCPPCPAPEAAGPSVFLFPPKPKDTLMISRTPEVTCVVVDVSHEDPEVKFNWYVDGVEVHNAKTKPREEQYNSTYRVVSVLTVLHQDWLNGKEYKCKVSNKALPAPIEKTISKAKGQPREPQVYTLPPSREEMTKNQVSLWCLVKGFYPSDIAVEWESNGQPENNYKTTPPVLDSDGSFFLYSKLTVDKSRWQQGNVFSCSVMHEALHNHYTQKSLSLSPGGGGGSGGGGSGGGGSGGGGSQVQLVQSGAEVKKPGASVKVSCKASGYTFAGFEMHWVRQAPGQGLEWMGAIDPKTGGTDYNQKFKDRVTMTRDTSISTAYMELSRLRSDDTAVYYCARDLGYFDVWGQGTLVTVSS
chain 2: QVQLVQSGAEVKKPGASVKVSCKASGYTFTSYVMHWVRQKPGQGLEWIGYINPYNEGTESTDKFKGRATMTSDKSTSTVYMELSSLRSEDTAVYYCASIYYGYEGTYFGVWGQGTLVTVSSASTKGPSVFPLAPSSKSTSGGTAALGCLVKDYFPEPVTVSWNSGALTSGVHTFPAVLQSSGLYSLSSVVTVPSSSLGTQTYICNVNHKPSNTKVDKKVEPKSCGGGGSGGGGSGGGGSGGGGSQAVVTQEPSLTVSPGGTVTLTCRSSTGAVTTSNYANWVQQKPGQAPRGLIGGTNKRAPWTPARFSGSLLGGKAALTITGAQAEDEADYYCALWYSNLWVFGGGTKLTVLGGGGSDKTHTCPPCPAPEAAGPSVFLFPPKPKDTLMISRTPEVTCVVVDVSHEDPEVKFNWYVDGVEVHNAKTKPREEQYNSTYRVVSVLTVLHQDWLNGKEYKCKVSNKALPAPIEKTISKAKGQPREPQVYTLPPSREEMTKNQVSLSCAVKGFYPSDIAVEWESNGQPENNYKTTPPVLDSDGSFFLVSKLTVDKSRWQQGNVFSCSVMHEALHNHYTQKSLSLSPGGGGGSGGGGSGGGGSGGGGSDIQMTQSPSSLSASVGDRVTITCRASQDIRSNLNWYQQKPGGAVKLLIYYTSRLHSGVPSRFSGSGSGTDYTLTISSLQPEDFATYFCQQSEKLPRTFGGGTKVEIR
chain 3: B2 chain 3
notes: B7H3/CD3/CD137 tri-specific; central CD3 Fv, terminal CD137 Fv
B4: Ly2128 (multi-specific antibody)
chain 1: QVQLVQSGAEVKKPGASVKVSCKASGYTFTSYVMHWVRQKPGQGLEWIGYINPYNEGTESTDKFKGRATMTSDKSTSTVYMELSSLRSEDTAVYYCASIYYGYEGTYFGVWGQGTLVTVSSASTKGPSVFPLAPSSKSTSGGTAALGCLVKDYFPEPVTVSWNSGALTSGVHTFPAVLQSSGLYSLSSVVTVPSSSLGTQTYICNVNHKPSNTKVDKKVEPKSCGGGGSGGGGSGGGGSGGGGSEVQLVESGGGLVQPGGSLRLSCAASGFTFSTYAMNWVRQAPGKGLEWVGRIRSKYNNYATYYADSVKGRFTISRDDSKNSLYLQMNSLKTEDTAVYYCVRHGNFGNSYVSWFAYWGQGTLVTVSSGGGGSDKTHTCPPCPAPEAAGPSVFLFPPKPKDTLMISRTPEVTCVVVDVSHEDPEVKFNWYVDGVEVHNAKTKPREEQYNSTYRVVSVLTVLHQDWLNGKEYKCKVSNKALPAPIEKTISKAKGQPREPQVYTLPPSREEMTKNQVSLWCLVKGFYPSDIAVEWESNGQPENNYKTTPPVLDSDGSFFLYSKLTVDKSRWQQGNVFSCSVMHEALHNHYTQKSLSLSPGGGGGSGGGGSGGGGSGGGGSQVQLVQSGAEVKKPGASVKVSCKASGYTFTSYYIHWVRQAPGQGLEWIGCIYPGNVNTNYNEKFKDRATLTVDTSISTAYMELSRLRSDDTAVYFCTRSHYGLDWNFDVWGQGTTVTVSS
chain 2: not shown
chain 3: B2 chain 3
notes: Tri-specific B7H3/CD3/CD28; central CD3 Fv, terminal CD28 Fv
B5: Ly2278 (bispecific antibody)
chain 1: QVQLQQSGAELVRPGSSVKISCKASGYAFSSYWMNWVKQRPGQGLEWIGQIWPGDGDTNYNGKFKGKATLTADESSSTAYMQLSSLASEDSAVYFCARRETTTVGRYYYAMDYWGQGTTVTVSSASTKGPSVFPLAPSSKSTSGGTAALGCLVKDYFPEPVTVSWNSGALTSGVHTFPAVLQSSGLYSLSSVVTVPSSSLGTQTYICNVNHKPSNTKVDKKVEPKSCGGGGSGGGGSGGGGSGGGGSEVQLVESGGGLVQPGGSLRLSCAASGFTFSTYAMNWVRQAPGKGLEWVGRIRSKYNNYATYYADSVKGRFTISRDDSKNSLYLQMNSLKTEDTAVYYCVRHGNFGNSYVSWFAYWGQGTLVTVSSGGGGSDKTHTCPPCPAPEAAGPSVFLFPPKPKDTLMISRTPEVTCVVVDVSHEDPEVKFNWYVDGVEVHNAKTKPREEQYNSTYRVVSVLTVLHQDWLNGKEYKCKVSNKALPAPIEKTISKAKGQPREPQVYTLPPSREEMTKNQVSLWCLVKGFYPSDIAVEWESNGQPENNYKTTPPVLDSDGSFFLYSKLTVDKSRWQQGNVFSCSVMHEALHNHYTQKSLSLSPG
chain 2: QVQLQQSGAELVRPGSSVKISCKASGYAFSSYWMNWVKQRPGQGLEWIGQIWPGDGDTNYNGKFKGKATLTADESSSTAYMQLSSLASEDSAVYFCARRETTTVGRYYYAMDYWGQGTTVTVSSASTKGPSVFPLAPSSKSTSGGTAALGCLVKDYFPEPVTVSWNSGALTSGVHTFPAVLQSSGLYSLSSVVTVPSSSLGTQTYICNVNHKPSNTKVDKKVEPKSCGGGGSGGGGSGGGGSGGGGSQAVVTQEPSLTVSPGGTVTLTCRSSTGAVTTSNYANWVQQKPGQAPRGLIGGTNKRAPWTPARFSGSLLGGKAALTITGAQAEDEADYYCALWYSNLWVFGGGTKLTVLGGGGSDKTHTCPPCPAPEAAGPSVFLFPPKPKDTLMISRTPEVTCVVVDVSHEDPEVKFNWYVDGVEVHNAKTKPREEQYNSTYRVVSVLTVLHQDWLNGKEYKCKVSNKALPAPIEKTISKAKGQPREPQVYTLPPSREEMTKNQVSLSCAVKGFYPSDIAVEWESNGQPENNYKTTPPVLDSDGSFFLVSKLTVDKSRWQQGNVFSCSVMHEALHNRFTQKSLSLSPG
chain 3: not shown
notes: CD19/CD3; central CD3 Fv

molecular target: CD3 (human); test: ELISA or FCM (as in Example 2)

| Binder | EC50 [µg/mL] |
| --- | --- |
| B1 | 0.03 |
| B2 | 0.419 |
| B3 | 0.74 |
| B4 | 1.08 |
| B5 | 1.46 |

Source: patent EP4803149A2 (Lyvgen Biopharma Holdings Limited, dated 2026)
